Measurements from patent US20230295310A1 (ABCELLERA BIOLOGICS, published 2023).

B1: mAb 153 (antibody, V domains shown)
VH: QVQLVESGGGVVQPGRSLRLSCAASGFTFSTYGMHWVRQAPGKGLEWVAVIWYDGSHKYYSDSVKGRFTISRDNSKNTLYLQMNSLRVEDTAIYYCARTGITGTTAYFYFDSWGQGTLVTVSS
VL: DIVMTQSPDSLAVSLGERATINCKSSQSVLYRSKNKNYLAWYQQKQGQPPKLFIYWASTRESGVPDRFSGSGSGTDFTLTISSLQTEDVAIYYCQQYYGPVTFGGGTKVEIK
B2: mAb 178 (antibody, V domains shown)
VH: EVQLVESGGGLVQPGRSLRLSCAASGFTFDDYTMHWVRQAPGKGLEWVSDISWNSGTIGYADSVKGRFTISRDNAKNSLYLQMNSLRAEDTALYYCVKDSSGYGHYYKYYMDVWGKGTTVTVSS
VL: DIQMTQSPSSLSASVGDRVTITCRASQSISNYLNWYQQKAGKVPKVLIYGSSSLQSGVPSRFSGSGSGTDFTLTISSLQPEDFASYYCQQTYSSPLTFGGGTKVDFK
notes: VH/VL only
B3: mAb 180 (antibody, V domains shown)
VH: EVNLVESGGGLVQPGRSLRLSCAASGFTFDDYTMHWVRQVPGKGLEWVSNISWNSGSLGYADSVKGRFTISRDNAKDSLYLQMNSLRVEDTALYYCAKDSSGYGHYNSYYMDVWGKGTTVTVSS
VL: DIQMTQSPSSLSASVGDRVTITCRASQSIRNYLNWYQQKPGKAPKVLIYSASSLQSGVPSRFSGSGSGTDFTLTISSLQPEDFASFYCQQTYSTPITFGQGTRLEIK
notes: VH/VL only
B4: mAb 69 (antibody, V domains shown)
VH: QMLLVESGGGVVQPGRSLTLSCAASGFTFRSYGMHWVRQAPGRGLEWVAIIWYDGSTEYYADSVKGRFTISRANSKNMLYLQMNSLRAEDTAVYYCAAFDYTNSFDIWGQGTMVTVSS
VL: DIVVTQTPLSSPVTLGQPASISCRSSQRFVHSDGNTYLSWLQQRPGQPPRLLIYKISNRISGVPDRFSGSGAGTDFKLKISRVEAEDVGIYYCMQATQFPYTFGQGTKLEIK
B5: mAb 70 (antibody, V domains shown)
VH: QGQLVESGGGVVQPGRSLRLSCEASGFTFRSYGMHWVRQPPGKGLEWVAIIWYDGGKKYYGDSVKGRFTISRDNPKNTLYLQMNSLRPEDTAVYYCMAYDYSNGFDIWGQGTMVTVSS
VL: DIVMTQTPLSSPVTLGQPASISCRSSQSFVHSDGSTYLSWLQQRPGQPPRLLIYKISNRFSGVPDRFSGRGAGTDFTLKISRVEAEDVGIYYCMQNTQFPYTFGQGTKLEIK
B6: mAb 323 (antibody, V domains shown)
VH: QVQVVQSGAEVKNPGASVKVSCKASGYTFTGYYMHWVRQAPGQGLEWMGWIYPNSGRTNYAQKFQGRVTMTRDTSISTAYMELSRLRSDDTAVYYCARLEQLVFDYWGQGTLVTVSS
VL: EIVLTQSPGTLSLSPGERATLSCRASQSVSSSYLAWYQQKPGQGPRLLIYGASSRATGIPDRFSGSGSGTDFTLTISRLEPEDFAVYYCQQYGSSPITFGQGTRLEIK
notes: VH and VL only
B7: mAb 78 (antibody, V domains shown)
VH: EVQLVESGGGLVQPGGSLRLSCAASGFTFSSYWMSWVRQAPGKGLEWVANIKQDGSEKYYVDSVKGRFTISRDNAKNSLYLQMNSLRAEDTAVYYCARDNSPSFYWYFDLWGRGTLVTVSS
VL: DIQMTQSPSTLSASVGDRVTITCRASQSLSRWLAWYQQKPGKAPKLLIYKASSLESGVPSRFSGSGSGTEFTLTISSLQPDDFATYYCQQYYTYSRTFGQGTKVEIK
B8: mAb 324 (antibody, V domains shown)
VH: QVQVVQSGAEVKKPGASVKVSCKTSGYTFTDYYIHWVRQAPGQGLEWMGWIYPKSGRTDNAQNFKGRVAMTRDTSINTAYLELNRLRSDDTAIYYCARLEELVFDYWGQGTLVTVSS
VL: DIQMTQSPSSVSASVGDRVTITCRASQVISRWLAWYQLKPGKAPKLLIYEASSLQSWVPSRFSGSGSGTDFTLTISSLQPEDFATYYCQQANSFPWTFGQGTKVEIK
B9: mAb 325 (antibody, V domains shown)
VH: QVQVVQSGAEVKKPGASVKVSCKTSGYTFTDQYIHWVRQAPGQGLEWMGWIYPKSGRTDNAQKFKGRVAMTRDTSINTAYMELSSLRSDDTATYYCARLEELVFDYWGQGTLVTVSS
VL: not shown
B10: mAb 158 (antibody, V domains shown)
VH: EVQLVESGGGLVQPGRSLRLSCAASGFTFADYTMHWVRQVPGKGLEWVSGISWNSGSVDYADSVKGRFTISRDNAKKTLYLQMNSLRAEDTALYYCAKDSSGYGHYYFYYLDVWGKGTTVTVSS
VL: EIVMTQSPATLSVSPGERATLSCRATQSVSSNLAWYQQKPGQAPRLLIYSTSTRATGIPARFSGSRSGTEFTLTISSLQSEDSAVYYCQQYNNWPHFGQGTRLEIK
B11: mAb 179 (antibody, V domains shown)
VH: EVQLVESGGGLVQPGRSLRLSCAASGFTFDDYTMHWVRQTPGKGLEWVSDISWNSGSIGYADSVKGRFTISRDNAKNTLYLQMNSLRAEDTALYYCVKDSSGYGHYLYYYMDVWGKGTTVTVSS
VL: DIQMTQSPSSLSASVGDRVTITCRASQSIRNYLNWYQQSPGRAPKLLIFSASSLQSGVPSRFSGSGSGTDFTLTISSLQPEDFVTYYCQQRYSTPITFGQGTRLEIK
notes: VH/VL only
B12: mAb 171 (antibody, V domains shown)
VH: EVQLVESGGGLVQPGRSLRLSCAASGFTFADYTMHWVRQAPGQGLEWVSGISWNSGSIDYADSVKGRFIISRDNAKKTLYLQMNSLRAEDTALYYCAKDSSGYGHYYFYYLDVWGKGTTVTVSS
VL: EIVMTQSPATLSVSPGERATLSCRASQSVSSNLAWYQQKPGQAPRLLIYSTSTRATGIPARFSGSRSGTEFTLTISSLQSEDSAVYYCQQYNNWPHFGQGTRLEIK
notes: VH/VL only
B13: mAb 121 (antibody, V domains shown)
VH: EVQLVESGGGLVQPGRSLRLSCATSGFTFADYTMHWVRQAPGKGLEWVSGISWNSGSIDYADSVKGRFTISRDNAKKSLYLQMNSLRAEDTALYFCAKDSSGYGHYYFYYLDVWGKGTTVTVSS
VL: EIVMTQSPGTLSVSPGKRATLSCRASQSVSSNLAWYQQKPGQGPRLLIYSTSTRATGIPARFSGSGSGTEFTLTISSLQSEDSAVYYCQHYNNWPHFGQGTRLEIK
B14: mAb 176 (antibody, V domains shown)
VH: EVELVESGGGLVQPGRSLRLSCAASGFKFDDYTMHWVRLPPGKGLEWVSGISWNSGTIDYGDSVKGRFTISRDNAKNSLYLQMNSLRVEDTALYYCAKDTSGYGHYFYYYMDVWGKGTTVTVSS
VL: DIQMTQSPSSLSASIGDRVSITCRTSQIINNYLNWYQQKPGKAPKVLIYSASSLQSGVPSRFSGSGSGTDFTLTINSLQPEDFATYYCQQSYNFPITFGQGTRLELK
notes: VH/VL only
B15: mAb 177 (antibody, V domains shown)
VH: EVQLVESGGGLVQPGMSLRLSCAASGFTFDDYTMHWVRQSPGKGLEWVAGISWNSGTIGYGDSMKGRFTISRDNAKNSLDLQMNSLRVEDTALYYCAKDTSGYGHYYYYFMDVWGKGTTVTVSS
VL: DIQMTQSPSSLSASIGDRVSITCRTSQIINNYLNWYQQKPGKAPKLLIYSASSLQSGVPSRFSGSGSGTDFTLTLSSLQPEDFATYFCQQSYNFPITFGQGTRLELK
notes: VH/VL only; the printed VL holds a letter U

What was measured:
[1] = molecular target: T1, cynomolgus monkey CD3 expressed on primary T cells (cynomolgus monkey, UniProt Q95LI5 22-198; Q95LI8 22-171; Q95LI7 23-181); assay: flow cytometry, 25 nM
T1 construct: whole, on cells; CD3 complex on purified cynomolgus monkey T cells; also called cyno CD3
In short: (§1)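 Values are fold over isotype: median fluorescence intensity of each antibody relative to isotype control after a 30-minute, 4° C incubation at 25 nM with CD3-bearing cells in PBS containing 2% FBS.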

[2] = molecular target: T2, human CD3 expressed on cells (human, UniProt P07766 23-207; P04234 22-171; P09693 23-182); assay: flow cytometry, 25 nM
T2 construct: whole, on cells; CD3 complex on Jurkat cells and on human primary T cells
In short: as §1

[3] = molecular target: T3, human CD3 expressed on cells (Jurkat cells; human primary T cells) (human, UniProt P07766 23-207; P04234 22-171; P09693 23-182); assay: flow cytometry, 25 nM, human primary T cells
T3 construct: whole, on cells
In short: as §1

[4] = molecular target: T4, cynomolgus monkey CD3 expressed on cyno primary T cells (cynomolgus monkey, UniProt Q95LI5 22-198; Q95LI8 22-171; Q95LI7 23-181); assay: flow cytometry, 25 nM, cyno primary T cells
T4 construct: whole, on cells; CD3 complex on purified cynomolgus monkey CD3 pan T cells; also called cyno CD3
In short: as §1

[5] = molecular target: T3, human CD3 expressed on cells (Jurkat …); assay: flow cytometry, 25 nM, Jurkat cells
In short: as §1

human CD3 = molecular target: T5, human CD3 (human, UniProt P07766 23-207; P04234 22-171; P09693 23-182); assay: flow cytometry, Jurkat cells
T5 construct: whole, on cells; also called CD3 on Jurkat cells; CD3 on human primary T cells
In short: as §1

cynomolgus monkey CD3 = molecular target: T6, cynomolgus monkey CD3 (cynomolgus monkey, UniProt Q95LI5 22-198; Q95LI8 22-171; Q95LI7 23-181); assay: flow cytometry, cyno primary T cells
T6 construct: whole, on cells; CD3 on purified cynomolgus monkey CD3 pan T cells; also called cyno CD3; CD3 on cyno primary T cells
In short: as §1

T5 sequence (P07766 23-207, chain 1 of 3): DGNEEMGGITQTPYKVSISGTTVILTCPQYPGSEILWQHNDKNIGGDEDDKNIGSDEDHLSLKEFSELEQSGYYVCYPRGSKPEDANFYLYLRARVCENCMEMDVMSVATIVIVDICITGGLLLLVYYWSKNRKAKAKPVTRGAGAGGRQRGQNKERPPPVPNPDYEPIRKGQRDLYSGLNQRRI
T5 sequence (P04234 22-171, chain 2 of 3): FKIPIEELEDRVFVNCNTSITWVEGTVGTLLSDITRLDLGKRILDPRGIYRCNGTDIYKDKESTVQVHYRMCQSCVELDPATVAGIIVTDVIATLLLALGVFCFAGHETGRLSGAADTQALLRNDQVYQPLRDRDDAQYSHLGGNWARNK
T5 sequence (P09693 23-182, chain 3 of 3): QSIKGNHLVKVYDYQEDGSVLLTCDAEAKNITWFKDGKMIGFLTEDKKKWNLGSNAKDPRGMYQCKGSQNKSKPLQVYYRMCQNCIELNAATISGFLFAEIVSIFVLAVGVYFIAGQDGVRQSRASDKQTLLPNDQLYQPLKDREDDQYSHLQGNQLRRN
T3 sequence (P07766 23-207, chain 1 of 3): as the sequence (P07766 23-207, chain 1 of 3) above
T3 sequence (P04234 22-171, chain 2 of 3): as the sequence (P04234 22-171, chain 2 of 3) above
T3 sequence (P09693 23-182, chain 3 of 3): as the sequence (P09693 23-182, chain 3 of 3) above
T2 sequence (P07766 23-207, chain 1 of 3): as the sequence (P07766 23-207, chain 1 of 3) above
T2 sequence (P04234 22-171, chain 2 of 3): as the sequence (P04234 22-171, chain 2 of 3) above
T2 sequence (P09693 23-182, chain 3 of 3): as the sequence (P09693 23-182, chain 3 of 3) above
T6 sequence (Q95LI5 22-198, chain 1 of 3): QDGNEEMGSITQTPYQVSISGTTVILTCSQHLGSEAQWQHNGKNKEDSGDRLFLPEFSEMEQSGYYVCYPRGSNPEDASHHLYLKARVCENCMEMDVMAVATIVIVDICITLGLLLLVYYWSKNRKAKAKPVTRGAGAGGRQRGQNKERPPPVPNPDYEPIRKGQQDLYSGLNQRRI
T6 sequence (Q95LI8 22-171, chain 2 of 3): as the sequence (P04234 22-171, chain 2 of 3) above, with I5V, N15K, I20V, S32T, D33N, I34N, T64A, S74N, V83L, H141R counted along it
T6 sequence (Q95LI7 23-181, chain 3 of 3): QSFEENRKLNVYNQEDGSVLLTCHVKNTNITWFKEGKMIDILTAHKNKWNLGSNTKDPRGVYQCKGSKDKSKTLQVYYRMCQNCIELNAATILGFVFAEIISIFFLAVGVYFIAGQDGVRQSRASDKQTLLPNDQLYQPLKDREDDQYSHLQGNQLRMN
T1 sequence (Q95LI5 22-198, chain 1 of 3): as the sequence (Q95LI5 22-198, chain 1 of 3) above
T1 sequence (Q95LI8 22-171, chain 2 of 3): as the sequence (P04234 22-171, chain 2 of 3) above, with I5V, N15K, I20V, S32T, D33N, I34N, T64A, S74N, V83L, H141R counted along it
T1 sequence (Q95LI7 23-181, chain 3 of 3): as the sequence (Q95LI7 23-181, chain 3 of 3) above
T4 sequence (Q95LI5 22-198, chain 1 of 3): as the sequence (Q95LI5 22-198, chain 1 of 3) above
T4 sequence (Q95LI8 22-171, chain 2 of 3): as the sequence (P04234 22-171, chain 2 of 3) above, with I5V, N15K, I20V, S32T, D33N, I34N, T64A, S74N, V83L, H141R counted along it
T4 sequence (Q95LI7 23-181, chain 3 of 3): as the sequence (Q95LI7 23-181, chain 3 of 3) above

Binder	Cyno primary T Cell Binding (FOI) [1]	Human primary T Cell Binding (FOI) [2]	Jurkat Cell Binding (FOI) [2]	Binding (FOI) [3]	Binding (FOI) [4]	Binding (FOI) [5]	other results
B1	26.1 FOI	262 FOI	98.5 FOI	–	–	–	–
B2	–	–	–	172 FOI	158 FOI	128 FOI	–
B3	–	–	–	–	90.2 FOI	–	–
B4	245 FOI	123 FOI	145 FOI	–	–	–	–
B5	238 FOI	131 FOI	140 FOI	–	–	–	–
B6	–	–	–	–	–	–	binding result (human CD3): no binding (tested: FOI ≥10 = positive; 25 nM); binding result (cynomolgus monkey CD3): no binding (tested: FOI ≥10 = positive; 25 nM)
B7	41.6 FOI	116 FOI	104 FOI	–	–	–	–
B8	–	–	–	–	–	–	binding result (human CD3): no binding (tested: FOI ≥10 = positive; 25 nM); binding result (cynomolgus monkey CD3): no binding (tested: FOI ≥10 = positive; 25 nM)
B9	–	–	–	–	–	–	binding result (human CD3): no binding (tested: FOI ≥10 = positive; 25 nM); binding result (cynomolgus monkey CD3): no binding (tested: FOI ≥10 = positive; 25 nM)
B10	10.9 FOI	164 FOI	117 FOI	–	–	–	–
B11	–	–	–	177 FOI	54.2 FOI	129 FOI	–
B12	–	–	–	165 FOI	20.1 FOI	108 FOI	–
B13	12.2 FOI	101 FOI	101 FOI	–	–	–	–
B14	–	–	–	147 FOI	34 FOI	114 FOI	–
B15	–	–	–	146 FOI	45.1 FOI	121 FOI	–
